The text below walks through data of article PMC6324732 (Cancer immunology research, 2018).

The target in assay [1] is HLA-A*02:01 heavy chain / β2-microglobulin (human). Description: differential scanning fluorimetry. Background: In DSF a fluorescence change marks the thermal transition of the protein.
Assay [2] deals with HLA-A2-restricted T-cell response. Conditions: HLA-A2-restricted epitopes; cited from earlier work.
Assay [3] relates to HLA-A2. Conditions: pep/HLA-A2 complexes; cited from earlier work.
For assay [4], the system named is HLA-A2. Conditions: each complex refolded with HLA-A2 individually, DSF; cited from earlier work.
Assay [5] addresses HLA-A*02:01 heavy chain / β2-microglobulin (human). Description: differential scanning fluorimetry. This is another data set of the same source.

Like-named read-outs stand apart in the source and are kept apart here.

TAX peptide: the Tm of the peptide/HLA-A2 complex in assay [1] was 61.9 °C. As for FLTSVINRV, the “immunogenicity (reported)” value in assay [2] is reported as “immunogenic”. Also, the “half-life of the complex (reported)” value with HLA-A2 [3] was 22.3 h. In the case of YMDGTMSQV [Tyrosinase], the “Tm value determined by another lab” value in the assay with HLA-A2 [4] was 67.3 °C.

B1: PRDX5 neoantigen peptide … (peptide)
peptide: LLLDDLLVSI
Turning to B1, the Tm of the peptide/HLA-A2 complex in assay [5] is 55.3 °C.

B2: GANAB neoantigen peptide … (peptide)
peptide: ALYGFVPVL
Turning to B2, in assay [5], the Tm of the peptide/HLA-A2 complex came out at 61.7 °C.

B3: NSDHL neoantigen peptide … (peptide)
peptide: ILTGLNYEV
For B3, in assay [5], the Tm of the peptide/HLA-A2 complex is 61.4 °C.

B4: TEAD1 neoantigen peptide … (peptide)
peptide: VLENFTIFLV
As for B4, the Tm of the peptide/HLA-A2 complex in assay [5] is 48.2 °C.

B5: CDC37L1 neoantigen peptide … (peptide)
peptide: FLSDHLYLV
In the case of B5, in assay [5], the Tm of the peptide/HLA-A2 complex was found to be 61.8 °C.

B6: FLNA neoantigen peptide … (peptide)
peptide: HIAKSLFEV
As for B6, the Tm of the peptide/HLA-A2 complex in assay [5] was 56.4 °C.

B7: ERBB2 neoantigen peptide … (peptide)
peptide: ALIHHNTYL
On to B7, for which the Tm of the peptide/HLA-A2 complex in assay [5] was 59.4 °C.

B8: ME-1 neoantigen peptide … (peptide)
peptide: FLDEFMEGV
On to B8, for which the Tm of the peptide/HLA-A2 complex in assay [5] came to 63.2 °C.

B9: CLPP neoantigen peptide … (peptide)
peptide: ILDKVLVHL
As to B9, the Tm of the peptide/HLA-A2 complex in assay [5] is 57.1 °C.

B10: KIAA0223 neoantigen peptide … (peptide)
peptide: VLHDDLLEA
Consider B10, for which, in assay [5], the Tm of the peptide/HLA-A2 complex was 59.7 °C.

B11: HSP70 neoantigen peptide … (peptide)
peptide: SLFEGIDIYT
As to B11, the Tm of the peptide/HLA-A2 complex in assay [5] is 59.8 °C.

B12: TEAD1 neoantigen peptide … (peptide)
peptide: SVLENFTIFL
With B12, in assay [5], the Tm of the peptide/HLA-A2 complex came to 55.8 °C.

B13: ACPP neoantigen peptide … (peptide)
peptide: VLAKKLKFV
Regarding B13, in assay [5], the Tm of the peptide/HLA-A2 complex amounted to 56.8 °C.

B14: AHNAK neoantigen peptide … (peptide)
peptide: FMPDFDLHL
In the case of B14, in assay [5], the Tm of the peptide/HLA-A2 complex came to 60.1 °C.

B15: GAS7 neoantigen peptide … (peptide)
peptide: SLADEAEVYL
Take B15: in assay [5], the Tm of the peptide/HLA-A2 complex was 59.2 °C.

B16: COL18A1 neoantigen peptide … (peptide)
peptide: VLLGVKLFGV
For B16, the Tm of the peptide/HLA-A2 complex in assay [5] worked out at 60.9 °C.

B17: FNDC3B neoantigen peptide … (peptide)
peptide: VVMSWAPPV
For B17, in assay [5], the Tm of the peptide/HLA-A2 complex was 61.6 °C.

B18: CSNK1A1 neoantigen peptide … (peptide)
peptide: GLFGDIYLAI
With B18, in assay [5], the Tm of the peptide/HLA-A2 complex came to 52.6 °C.

B19: HAUS3 neoantigen peptide … (peptide)
peptide: ILNAMIAKI
Regarding B19, the Tm of the peptide/HLA-A2 complex in assay [5] was found to be 56.9 °C.

B20: SPOP neoantigen peptide … (peptide)
peptide: FLLDEAIGL
On to B20, for which, in assay [5], the Tm of the peptide/HLA-A2 complex was 60.7 °C.

B21: GAPDH neoantigen peptide … (peptide)
peptide: GIVEGLITTV
On to B21, for which the Tm of the peptide/HLA-A2 complex in assay [5] came to 58.5 °C.

B22: CDK4 neoantigen peptide … (peptide)
peptide: ACDPHSGHFV
For the molecule B22, in assay [5], the Tm of the peptide/HLA-A2 complex was found to be 59.9 °C.

B23: DCAKD neoantigen peptide … (peptide)
peptide: LLHTELERFL
For the molecule B23, in assay [5], the Tm of the peptide/HLA-A2 complex turned out to be 42.9 °C.

B24: ACTININ neoantigen peptide … (peptide)
peptide: FIASNGVKLV
For the molecule B24, in assay [5], the Tm of the peptide/HLA-A2 complex was 56.9 °C.

B25: SRPX neoantigen peptide … (peptide)
peptide: TLWCSPIKV
For the molecule B25, the Tm of the peptide/HLA-A2 complex in assay [5] worked out at 63.7 °C.

B26: CIT neoantigen peptide … (peptide)
peptide: TLLSQVNKV
With B26, in assay [5], the Tm of the peptide/HLA-A2 complex was found to be 53.2 °C.
